Consider 6 molecules from patent US20080286275A1 (ISTITUTO DI RICERCHE DI BIOLOGIA MOLECOLARE P ANGELETTI S P …, published 2008).

First the molecules themselves.
T1: human scavenger receptor class B type I (SR-B1) (human, UniProt Q8WTV0 1-467)
T1 construct: The same entry is used for all three; also called SR-BI; SR-B1 receptor
T1 sequence: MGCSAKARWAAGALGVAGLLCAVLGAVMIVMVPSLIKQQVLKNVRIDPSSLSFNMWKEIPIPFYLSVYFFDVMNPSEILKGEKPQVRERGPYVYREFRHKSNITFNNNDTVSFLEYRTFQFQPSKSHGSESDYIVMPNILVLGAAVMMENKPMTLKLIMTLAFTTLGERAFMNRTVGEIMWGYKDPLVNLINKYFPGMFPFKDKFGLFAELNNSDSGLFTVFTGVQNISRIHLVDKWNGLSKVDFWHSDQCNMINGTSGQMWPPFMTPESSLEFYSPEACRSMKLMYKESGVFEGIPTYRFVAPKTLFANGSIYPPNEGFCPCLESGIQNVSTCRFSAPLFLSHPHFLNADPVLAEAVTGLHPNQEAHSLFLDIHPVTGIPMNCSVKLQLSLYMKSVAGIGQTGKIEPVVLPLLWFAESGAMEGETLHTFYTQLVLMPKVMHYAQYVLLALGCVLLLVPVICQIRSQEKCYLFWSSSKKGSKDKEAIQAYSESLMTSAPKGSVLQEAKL

B1: single-chain antibody of SEQ ID NO: 3 (scFv)
scFv: EVQLVETGAEVKKPGSSVKVSCKASGDTLSSHAIIWVRQAPGQGLEWMGGIIPIFRTVNYAQKFQGRVTITADDSTSTAYMELNDLRSEDTAVYYCAKTLNEGLPWDYWGQGTLVTVSSGGGGSGGGGSGGGGSAQSVLTQPPGASGAPGQRVTISCSGDSSNIESYAVNWYQQVPGMAPKLLIYRDNQRPSGVPDRFSGSRSGTSASLAISGLQSEDEADYYCGSWDDNLNGPTFGGGTKVTVL
notes: VH-linker(Ser/Gly)-VL from the CAT phage library CS, produced outside the phage context
B2: single-chain antibody of SEQ ID NO: 2 (scFv)
scFv: QVQLQESGPGLVKPSETLSLNCTVSGGSISSSSYYWGWIRQPPGKGLEWIGSVYYTGNTYYNPSLKSRVTMSVDTSKNQFSLKLNSVTAADTAVYYCARHVLGGGWEVSQRFDYWGRGTLVTVSSGGGGSGGGGSGGGGSAQSVLTQPPSASGTPGQRVTISCSGSSSNIGSNPVNWYQQLPGTAPKLLIHTNNQRPSGVPDRFSGSKSGTSASLAISGLLSEDEADYYCAAWDDSLNAYVFGTGTKVTVL
notes: VH-linker(Ser/Gly)-VL from the CAT phage library CS, produced outside the phage context; also called scFVC11
B3: single-chain antibody of SEQ ID NO: 1 (scFv)
scFv: EVQLVQSGAEVRKPGATVKISCKLTGDTFTDYFIFWLQLAPGKGLQWMGLIDPKDAQTIYAEKFQGRVAITADTSTDTAYMEVSSLRSEDTAVYYCATDSVGAAGFDVWGRGTMVTVSSGGGGSGGGGSGGGGSALPVLTQPPSASGAPGQRVTFSCSGSGSNIGSYTVNWYQQLPGAAPRLLMHTTDQRASGAPDRFSGSKSGTSASLAITGLQSEDEADYFCAAWDDSLDGPVFGGGTKLTVL
notes: as for B1
B4: single-chain antibody of SEQ ID NO: 4 (scFv)
scFv: EVQLVQSGAEVRKPGTAVKISCKVAGDTFTDYFIYWLQQAPGKGPEWMGLIDPKDAQTIYAEKFQGRVAITADTSTDTAYMELSSLKSEDTAVYYCATDSVGSAGFDVWGQGTLVTVSSGGGGSGGGGSGGGGSALPVLTQPPSASGAPGQRVTFSCSGSGSNIGSYTVNWYQQLPGAAPRLLMHTTDQRASGVPDRFSGSKSGTSASLAITGLQSEDEADYFCAAWDDSLDGPVFGGGTKLTVL
notes: as for B1
B5: IgG4 molecule containing SEQ ID NO: 2 variable regions (antibody, V domains shown)
VH: QVQLQESGPGLVKPSETLSLNCTVSGGSISSSSYYWGWIRQPPGKGLEWIGSVYYTGNTYYNPSLKSRVTMSVDTSKNQFSLKLNSVTAADTAVYYCARHVLGGGWEVSQRFDYWGRGTLVTVSS
VL: not shown
notes: The primers may have added amino acids
B6: IgG4 molecule containing SEQ ID NO: 4 variable regions (antibody, V domains shown)
VH: EVQLVQSGAEVRKPGTAVKISCKVAGDTFTDYFIYWLQQAPGKGPEWMGLIDPKDAQTIYAEKFQGRVAITADTSTDTAYMELSSLKSEDTAVYYCATDSVGSAGFDVWGQGTLVTVSS
VL: LPVLTQPPSASGAPGQRVTFSCSGSGSNIGSYTVNWYQQLPGAAPRLLMHTTDQRASGVPDRFSGSKSGTSASLAITGLQSEDEADYFCAAWDDSLDGPVFGGGTKLTVL
notes: as for B5

In the first test the target is T1, human scavenger receptor class B type I …. Kind of test: FACS competition on HepG2 cells, scFv concentration varied, competitor soluble E2.
Take B1: the binding result is reported as “binds”.
On the same count and under the same terms, the value for B2 was “binds”; that for B3 was “binds”.
The same measure, in the same setting: the result for B4 reads “binds”.

Another test shares this target. Kind of test: FACS competition on Cho7s cells expressing human SR-B1, IgG concentration varied (60-12-2.4 µg/ml), competitor His-tagged soluble E2.
Take B5: the binding result was “binds”.
The same measure, in the same setting: the value for B6 was “binds”.
